Assays:
Test in all cases: MST
[1] = biological target: C0-C7 fragment of human cardiac myosin binding protein-C (MyBP-C) (human)
[2] = biological target: R663H human β-cardiac short S1 (sS1) (human) (UniProt P12883)
[3] = biological target: WT human β-cardiac short S1 (sS1) (human) (UniProt P12883)
[4] = biological target: R663H human β-cardiac 25-hep HMM (UniProt P12883)
[5] = biological target: WT human β-cardiac 25-hep HMM (UniProt P12883)

WT human β-cardiac 25-hep HMM (from UniProt P12883 1-1016; P08590 1-195) (complex)
Kd [1]: 1100 nM

proximal S2 of human β-cardiac myosin (from UniProt P12883 1-1935) (domain or fragment)
Kd [2]: 58000 nM | Kd [3]: 62000 nM

C0-C7 fragment of human cardiac myosin binding protein-C (MyBP-C) (domain or fragment)
Kd [4]: 1100 nM | Kd [5]: 1500 nM

From paper PMC7124958
